Measurements as given in patent US20070092449A1.

Target: TrkB receptor (mouse neuromuscular junction) (mouse) (UniProt P15209)
Assay: cell-based or functional assay

Sequence of UniProt P15209 (P15209 32-821): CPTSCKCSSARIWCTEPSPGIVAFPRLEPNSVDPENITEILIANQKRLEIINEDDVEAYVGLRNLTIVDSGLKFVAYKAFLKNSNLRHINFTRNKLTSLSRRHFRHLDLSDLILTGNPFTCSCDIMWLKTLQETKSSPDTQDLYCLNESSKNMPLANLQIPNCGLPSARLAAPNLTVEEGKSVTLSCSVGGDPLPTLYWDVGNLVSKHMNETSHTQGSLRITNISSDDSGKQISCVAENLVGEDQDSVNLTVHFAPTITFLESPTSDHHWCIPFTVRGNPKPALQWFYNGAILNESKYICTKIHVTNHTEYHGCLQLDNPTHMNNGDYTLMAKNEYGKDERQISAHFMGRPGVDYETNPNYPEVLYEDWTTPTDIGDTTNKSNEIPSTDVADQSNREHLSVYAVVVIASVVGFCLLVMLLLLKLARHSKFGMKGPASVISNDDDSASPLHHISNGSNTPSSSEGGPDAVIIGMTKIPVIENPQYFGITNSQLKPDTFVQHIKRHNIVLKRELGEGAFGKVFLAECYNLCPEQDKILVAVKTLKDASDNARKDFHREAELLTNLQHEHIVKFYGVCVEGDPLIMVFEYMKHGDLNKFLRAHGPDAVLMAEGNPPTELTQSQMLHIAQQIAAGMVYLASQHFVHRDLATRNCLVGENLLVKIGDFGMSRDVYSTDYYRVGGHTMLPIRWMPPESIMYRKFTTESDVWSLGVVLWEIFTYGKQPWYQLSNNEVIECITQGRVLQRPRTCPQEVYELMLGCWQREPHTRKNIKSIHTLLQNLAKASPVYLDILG

Substance | elevation in the level of GFP-TTC concentration at the NMJ (100 ng BDNF) [fold] | elevation in the level of GFP-TTC concentration at the NMJ (250 ng BDNF) [fold] | increase of GFP-TTC signal at the NMJ after BoTx/A block [fold] | GFP-TTC localization at the NMJ [fold]
recombinant human BDNF (Alomone labs) (from UniProt P23560 129-247) (ligand) | 1.72 | 1.15 | 2.05 | 
recombinant human NT-4 (Alomone labs) (from UniProt P34130 81-210) (ligand) |  |  |  | 1.54
